According to patent US20210147504A1:

Assays:
[1] = molecular target: rat ANP receptor (NPR-A) (rat) (UniProt P18910); assay: cell-based or functional assay
[2] = molecular target: rat CNP receptor (NPR-B) (rat) (UniProt P16067); assay: cell-based or functional assay
Chain of rat CNP receptor (NPR-B) (rat) (P16067 17-1047): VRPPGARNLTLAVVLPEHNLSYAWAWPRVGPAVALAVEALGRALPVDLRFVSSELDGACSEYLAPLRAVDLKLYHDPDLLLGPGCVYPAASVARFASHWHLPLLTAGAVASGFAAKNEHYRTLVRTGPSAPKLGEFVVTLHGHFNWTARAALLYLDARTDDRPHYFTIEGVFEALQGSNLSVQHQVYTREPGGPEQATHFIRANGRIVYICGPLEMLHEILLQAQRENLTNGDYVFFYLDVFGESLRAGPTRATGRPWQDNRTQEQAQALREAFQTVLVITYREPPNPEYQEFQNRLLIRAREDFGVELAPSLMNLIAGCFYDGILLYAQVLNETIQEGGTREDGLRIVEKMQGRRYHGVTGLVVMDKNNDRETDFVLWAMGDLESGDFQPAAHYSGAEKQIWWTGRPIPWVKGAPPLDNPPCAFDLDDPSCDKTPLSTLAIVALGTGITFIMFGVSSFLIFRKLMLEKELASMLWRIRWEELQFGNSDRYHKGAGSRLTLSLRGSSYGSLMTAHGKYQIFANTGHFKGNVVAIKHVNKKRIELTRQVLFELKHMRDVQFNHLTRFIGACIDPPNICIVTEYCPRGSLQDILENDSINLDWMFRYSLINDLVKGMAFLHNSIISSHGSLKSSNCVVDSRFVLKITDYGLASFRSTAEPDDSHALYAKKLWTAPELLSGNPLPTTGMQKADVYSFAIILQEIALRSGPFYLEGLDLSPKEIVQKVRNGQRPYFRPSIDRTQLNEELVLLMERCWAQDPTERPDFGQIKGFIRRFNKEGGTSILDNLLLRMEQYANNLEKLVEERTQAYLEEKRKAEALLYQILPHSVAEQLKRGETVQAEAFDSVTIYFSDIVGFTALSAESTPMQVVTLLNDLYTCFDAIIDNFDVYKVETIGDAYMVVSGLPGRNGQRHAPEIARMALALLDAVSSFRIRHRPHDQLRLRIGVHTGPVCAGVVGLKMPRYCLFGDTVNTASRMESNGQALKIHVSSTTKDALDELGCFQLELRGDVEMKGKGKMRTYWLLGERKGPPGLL

Chain of rat ANP receptor (NPR-A) (rat) (P18910 29-1057): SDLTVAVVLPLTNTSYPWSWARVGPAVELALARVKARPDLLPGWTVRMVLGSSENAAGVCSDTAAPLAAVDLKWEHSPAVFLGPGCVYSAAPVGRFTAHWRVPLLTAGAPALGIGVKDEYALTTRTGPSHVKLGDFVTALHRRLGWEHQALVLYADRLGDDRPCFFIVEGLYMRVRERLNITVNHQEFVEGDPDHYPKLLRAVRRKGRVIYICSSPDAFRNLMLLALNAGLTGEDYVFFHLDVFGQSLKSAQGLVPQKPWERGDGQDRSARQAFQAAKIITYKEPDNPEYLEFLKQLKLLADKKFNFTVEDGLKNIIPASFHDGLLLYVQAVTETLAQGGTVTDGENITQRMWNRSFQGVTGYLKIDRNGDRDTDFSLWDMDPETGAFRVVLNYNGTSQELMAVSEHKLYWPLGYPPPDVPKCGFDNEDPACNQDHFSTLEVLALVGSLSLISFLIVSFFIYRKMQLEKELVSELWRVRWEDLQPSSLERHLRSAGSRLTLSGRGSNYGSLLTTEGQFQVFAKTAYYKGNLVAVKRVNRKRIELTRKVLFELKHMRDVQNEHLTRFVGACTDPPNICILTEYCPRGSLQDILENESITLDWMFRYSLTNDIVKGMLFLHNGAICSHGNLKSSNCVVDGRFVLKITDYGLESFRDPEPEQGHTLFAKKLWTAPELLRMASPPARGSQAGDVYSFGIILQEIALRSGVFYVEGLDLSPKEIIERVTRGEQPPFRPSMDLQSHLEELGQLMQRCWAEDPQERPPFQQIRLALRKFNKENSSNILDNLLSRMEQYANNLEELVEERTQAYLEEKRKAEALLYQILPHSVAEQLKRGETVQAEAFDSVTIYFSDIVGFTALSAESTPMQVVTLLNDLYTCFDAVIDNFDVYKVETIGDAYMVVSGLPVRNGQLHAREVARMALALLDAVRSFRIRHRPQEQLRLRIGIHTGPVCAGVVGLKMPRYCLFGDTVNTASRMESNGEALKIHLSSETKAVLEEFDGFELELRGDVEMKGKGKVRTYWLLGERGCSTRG

B1: ANP (Bachem, H-2100) (peptide, from a related filing)
peptide: SLRRSSCFGGRIDRIGAQSGLGCNSFRY
- EC50, fluorescence signal of rat NPR-A cGMP reporter CHO cell line (GCaMP6/CNGA2) [1]: 0.22 nM

B2: CNP (Bachem, H-1296) (peptide, from a related filing)
peptide: GLSKGCFGLKLDRIGSMSGLGC
- EC50, luminescence signal of rat NPR-B cGMP reporter cell line [2]: 0.024 nM
